Measurements: PMC11574045, “A cofactor-induced repressive type of transcription factor condensation can be induced by synthetic peptides to suppress tumorigenesis” (The EMBO Journal, 2024)

Tested on: HEK293FT cells transfected with TF library
Assay: Screening of TF condensates based on fluorescent puncta
Type: cell-based
Conditions: Figure 1B numerical data; TF library screen, one value per transcriptional factor
Method in brief: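 Each TF construct was introduced into HEK293FT cells using PEI at 4.8 μg/ml; glucose deprivation versus normal medium lasted 12 h. Automated confocal-style imaging of tagged TF staining, 50 fields per well, gave the puncta data.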

B1: TBR1 (protein, UniProt Q16650 1-682, looked up)
T-box brain protein 1: MQLEHCLSPSIMLSKKFLNVSSSYPHSGGSELVLHDHPIISTTDNLERSSPLKKITRGMTNQSDTDNFPDSKDSPGDVQRSKLSPVLDGVSELRHSFDGSAADRYLLSQSSQPQSAATAPSAMFPYPGQHGPAHPAFSIGSPSRYMAHHPVITNGAYNSLLSNSSPQGYPTAGYPYPQQYGHSYQGAPFYQFSSTQPGLVPGKAQVYLCNRPLWLKFHRHQTEMIITKQGRRMFPFLSFNISGLDPTAHYNIFVDVILADPNHWRFQGGKWVPCGKADTNVQGNRVYMHPDSPNTGAHWMRQEISFGKLKLTNNKGASNNNGQMVVLQSLHKYQPRLHVVEVNEDGTEDTSQPGRVQTFTFPETQFIAVTAYQNTDITQLKIDHNPFAKGFRDNYDTIYTGCDMDRLTPSPNDSPRSQIVPGARYAMAGSFLQDQFVSNYAKARFHPGAGAGPGPGTDRSVPHTNGLLSPQQAEDPGAPSPQRWFVTPANNRLDFAASAYDTATDFAGNAATLLSYAAAGVKALPLQAAGCTGRPLGYYADPSGWGARSPPQYCGTKSGSVLPCWPNSAAAAARMAGANPYLGEEAEGLAAERSPLPPGAAEDAKPKDLSDSSWIETPSSIKSIDSSDSGIYEQAKRRRISPADTPVSESSSPLKSEVLAQRDCEKNCAKDISGYYGFYSHS
Z score of condensed fraction: -0.7739

B2: TCF25 (protein, UniProt Q9BQ70 1-676, looked up)
Ribosome quality control …: MSRRALRRLRGEQRGQEPLGPGALHFDLRDDDDAEEEGPKRELGVRRPGGAGKEGVRVNNRFELINIDDLEDDPVVNGERSGCALTDAVAPGNKGRGQRGNTESKTDGDDTETVPSEQSHASGKLRKKKKKQKNKKSSTGEASENGLEDIDRILERIEDSTGLNRPGPAPLSSRKHVLYVEHRHLNPDTELKRYFGARAILGEQRPRQRQRVYPKCTWLTTPKSTWPRYSKPGLSMRLLESKKGLSFFAFEHSEEYQQAQHKFLVAVESMEPNNIVVLLQTSPYHVDSLLQLSDACRFQEDQEMARDLVERALYSMECAFHPLFSLTSGACRLDYRRPENRSFYLALYKQMSFLEKRGCPRTALEYCKLILSLEPDEDPLCMLLLIDHLALRARNYEYLIRLFQEWEAHRNLSQLPNFAFSVPLAYFLLSQQTDLPECEQSSARQKASLLIQQALTMFPGVLLPLLESCSVRPDASVSSHRFFGPNAEISQPPALSQLVNLYLGRSHFLWKEPATMSWLEENVHEVLQAVDAGDPAVEACENRRKVLYQRAPRNIHRHVILSEIKEAVAALPPDVTTQSVMGFDPLPPSDTIYSYVRPERLSPISHGNTIALFFRSLLPNYTMEGERPEEGVAGGLNRNQGLNRLMLAVRDMMANFHLNDLEAPHEDDAEGEGEWD
Z score of condensed fraction: 2.145

B3: TCEB2 (protein, UniProt Q15370 1-118, looked up)
Elongin-B: MDVFLMIRRHKTTIFTDAKESSTVFELKRIVEGILKRPPDEQRLYKDDQLLDDGKTLGECGFTSQTARPQAPATVGLAFRADDTFEALCIEPFSSPPELPDVMKPQDSGSSANEQAVQ
Z score of condensed fraction: -0.4277

B4: TCF15 (protein, UniProt Q12870 1-199, looked up)
Transcription factor 15: MAFALLRPVGAHVLYPDVRLLSEDEENRSESDASDQSFGCCEGPEAARRGPGPGGGRRAGGGGGAGPVVVVRQRQAANARERDRTQSVNTAFTALRTLIPTEPVDRKLSKIETVRLASSYIAHLANVLLLGDSADDGQPCFRAAGSAKGAVPAAADGGRQPRSICTFCLSNQRKGGGRRDLGGSCLKVRGVAPLRGPRR
Z score of condensed fraction: 0.7138

B5: TCF24 (protein, UniProt Q7RTU0 1-167, looked up)
Transcription factor 24: MDRGRPAGSPLSASAEPAPLAAAIRDSRPGRTGPGPAGPGGGSRSGSGRPAAANAARERSRVQTLRHAFLELQRTLPSVPPDTKLSKLDVLLLATTYIAHLTRSLQDDAEAPADAGLGALRGDGYLHPVKKWPMRSRLYIGATGQFLKHSVSGEKTNHDNTPTDSQP
Z score of condensed fraction: -0.9879

B6: TBX6 (protein, UniProt O95947 1-436, looked up)
T-box transcription factor …: MYHPRELYPSLGAGYRLGPAQPGADSSFPPALAEGYRYPELDTPKLDCFLSGMEAAPRTLAAHPPLPLLPPAMGTEPAPSAPEALHSLPGVSLSLENRELWKEFSSVGTEMIITKAGRRMFPACRVSVTGLDPEARYLFLLDVIPVDGARYRWQGRRWEPSGKAEPRLPDRVYIHPDSPATGAHWMRQPVSFHRVKLTNSTLDPHGHLILHSMHKYQPRIHLVRAAQLCSQHWGGMASFRFPETTFISVTAYQNPQITQLKIAANPFAKGFRENGRNCKRERDARVKRKLRGPEPAATEAYGSGDTPGGPCDSTLGGDIRESDPEQAPAPGEATAAPAPLCGGPSAEAYLLHPAAFHGAPSHLPTRSPSFPEAPDSGRSAPYSAAFLELPHGSGGSGYPAAPPAVPFAPHFLQGGPFPLPYTAPGGYLDVGSKPMY
Z score of condensed fraction: -0.7283

B7: BIF1 (protein, UniProt Q9Y371 1-365, looked up)
Endophilin-B1: MNIMDFNVKKLAADAGTFLSRAVQFTEEKLGQAEKTELDAHLENLLSKAECTKIWTEKIMKQTEVLLQPNPNARIEEFVYEKLDRKAPSRINNPELLGQYMIDAGTEFGPGTAYGNALIKCGETQKRIGTADRELIQTSALNFLTPLRNFIEGDYKTIAKERKLLQNKRLDLDAAKTRLKKAKAAETRNSSEQELRITQSEFDRQAEITRLLLEGISSTHAHHLRCLNDFVEAQMTYYAQCYQYMLDLQKQLGSFPSNYLSNNNQTSVTPVPSVLPNAIGSSAMASTSGLVITSPSNLSDLKECSGSRKARVLYDYDAANSTELSLLADEVITVFSVVGMDSDWLMGERGNQKGKVPITYLELLN
Z score of condensed fraction: -0.08025

B8: TBX20 (protein, UniProt Q9UMR3 1-447, looked up)
T-box transcription factor …: MEFTASPKPQLSSRANAFSIAALMSSGGSKEKEATENTIKPLEQFVEKSSCAQPLGELTSLDAHGEFGGGSGSSPSSSSLCTEPLIPTTPIIPSEEMAKIACSLETKELWDKFHELGTEMIITKSGRRMFPTIRVSFSGVDPEAKYIVLMDIVPVDNKRYRYAYHRSSWLVAGKADPPLPARLYVHPDSPFTGEQLLKQMVSFEKVKLTNNELDQHGHIILNSMHKYQPRVHIIKKKDHTASLLNLKSEEFRTFIFPETVFTAVTAYQNQLITKLKIDSNPFAKGFRDSSRLTDIERESVESLIQKHSYARSPIRTYGGEEDVLGDESQTTPNRGSAFTTSDNLSLSSWVSSSSSFPGFQHPQSLTALGTSTASIATPIPHPIQGSLPPYSRLGMPLTPSAIASSMQGSGPTFPSFHMPRYHHYFQQGPYAAIQGLRHSSAVMTPFV
Z score of condensed fraction: 0.6837

B9: TBX19 (protein, UniProt Q99ME7 1-446, looked up)
T-box transcription factor …: MSELATQKAGEGTVSRLLNVVESELQAGREKGDPTEKQLQIILEDAPLWQRFKEVTNEMIVTKNGRRMFPVLKISVTGLDPNAMYSLLLDFVRTDSHRWKYVNGEWVPAGKPEVSSHSCVYIHPDSPNFGAHWMKAPISFSKVKLTNKLNGGGQIMLNSLHKYEPQVHIVRVGGAHRMVMNCSFPETQFIAVTAYQNEEITALKIKYNPFAKAFLDAKERNHLKDVPEAISESQHVTYSHLGGWILSNPDGVCTAANSNYQYATPLPLPAPHTHHGCEHYAGLRGHRQAPYPSAYMHRNHSPSVNLIESSSNNLQVFSGPDSWTSLSSTPHASILSVPHSNGPINPGPSPYPCLWTISNGGGGPVASGSEVHASTSGTILLGNPAVTSPSSLLPTQATTSAGVEVLGEPSLTSIAVSTWTAVASHPLPGWGGPGGAGRHSSSSLDS
Z score of condensed fraction: 1.015

B10: TCF21 (protein, UniProt O43680 1-179, looked up)
Transcription factor 21: MSTGSLSDVEDLQEVEMLECDGLKMDSNKEFVTSNESTEESSNCENGSPQKGRGGLGKRRKAPTKKSPLSGVSQEGKQVQRNAANARERARMRVLSKAFSRLKTTLPWVPPDTKLSKLDTLRLASSYIAHLRQILANDKYENGYIHPVNLTWPFMVAGKPESDLKEVVTASRLCGTTAS
Z score of condensed fraction: 0.06751

B11: TAF9 (protein, UniProt Q8VI33 1-264, looked up)
Transcription initiation …: MESGKMASPKSMPKDAQMMAQILKDMGITEYEPRVINQMLEFAFRYVTTILDDAKIYSSHAKKATVDADDVRLAIQCRADQSFTSPPPRDFLLDIARQRNQTPLPLIKPYSGPRLPPDRYCLTAPNYRLKSLQKKAPAPAGRITVPRLSVGSVSSRPSTPTLGTPTPQTMSVSTKVGTPMSLTGQRFTVQMPASQSPAVKASIPATSTVQNVLINPSLIGSKNILITTNMVSQNTAESANALKRKREDDDDDDDDDDDDDYDNM
Z score of condensed fraction: -0.7072

B12: TERF2 (protein, UniProt O35144 1-541, looked up)
Telomeric repeat-binding …: MAAGAGTAGPASGPGVVRDPMASQPRKRPSREGGEGGEGERRSNTMAGGGGSSDSSGRAASRRASRSGGRARRGRHEPGLGGAAERGAGEARLEEAVNRWVLKFYFHEALRAFRSSRYRDFRQIRDIMQALLVRPLGKEHTVSRLLRVMQCLSRIEEGENLDCSFDMEAELTPLESAINVLEMIKTEFTLTDSMVESSRKLVKEAAVIICIKNKEFEKASKILKKYMSKDPTTQKLRTDLLNIIREKNLAHPVIQNFSYEVFQQKMLRFLESHLDDTEPYLLTMAKKALKSESAASSTMREEKHPEPVEKPLREPPSRQPQNPPATIGIRTLKAAFKALSTAQDSEAAFAKLDQKDLVLANLASPSSPAHKHKRPRKDEHESAAPAEGEGGSDRQPRNSPMTISRLLLEEDSQSTEPSPGLNSSHKAMSASKPRALNQPHPGEKKPKASKDKWNSPNGLEEKEVWLEEDQLFEVQAPGEDRSSSLTRKQKWTIEESEWVKDGVRKYGEGNWAAISKSYPFVNRTAVMIKDRWRTMKKLGMN
Z score of condensed fraction: 0.4642

B13: TCFL5 (protein, UniProt Q9UL49 1-500, looked up)
Transcription factor-like 5 …: MSGPGPREPPPEAGAAGGEAAVEGAGGGDAALGEPGLSFTTTDLSLVEMTEVEYTQLQHILCSHMEAAADGELETRLNSALLAAAGPGAGAGGFAAGGQGGAAPVYPVLCPSALAADAPCLGHIDFQELRMMLLSEAGAAEKTSGGGDGARARADGAAKEGAGAAAAAAGPDGAPEARAKPAVRVRLEDRFNSIPAEPPPAPRGPEPPEPGGALNNLVTLIRHPSELMNVPLQQQNKCTALVKNKTAATTTALQFTYPLFTTNACSTSGNSNLSQTQSSSNSCSVLEAAKHQDIGLPRAFSFCYQQEIESTKQTLGSRNKVLPEQVWIKVGEAALCKQALKRNRSRMRQLDTNVERRALGEIQNVGEGATATQGAWQSSESSQANLGEQAQSGPQGGRSQRRERHNRMERDRRRRIRICCDELNLLVPFCNAETDKATTLQWTTAFLKYIQERHGDSLKKEFESVFCGKTGRRLKLTRPDSLVTCPAQGSLQSSPSMEIK
Z score of condensed fraction: -0.869
